Results reported in patent US20100144630.

Experiments:
[1] = tested on: alpha-1 antitrypsin (native, not heat-inactivated)
[2] = tested on: heat-inactivated alpha-1 antitrypsin

## Elastase
[1]
  elastase activity: hydrolysis of N-Succinyl-Ala-Ala-Ala-p-nitroanalide, absorbance at 410 nm: Combining native (NOT heat-inactivated) AAT ablated elastase processing of the N-Succinyl-Ala-Ala-Ala-p-nitroanalide substrate and blocked the increase in A410 nm
[2]
  elastase activity: hydrolysis of N-Succinyl-Ala-Ala-Ala-p-nitroanalide, absorbance at 410 nm: combining HIAAT with elastase produced a curve similar to that of elastase alone. This demonstrated that HIAAT possessed no detectable elastase neutralizing activity
